In US20080220450A1 (DANISCO US INC GENENCOR DIVISION, published 2008):

Target: HLA-DR2(15) (human)
Experiment: competition assay against a standard peptide on purified HLA class II

IC50: 127 nM
B1: B. lentus subtilisin epitope peptide, amino acids 160-174 (peptide, UniProt P29600 160-174, looked up)
peptide: SYPARYANAMAVGAT
notes: Synthetic 15-mer; also called peptide position #54
